Laboratory results reported in the DeepSol protein solubility set.

experiment: soluble on expression in E. coli; label from the status in PepcDB or PDB records

Soluble on expression in E. coli, not soluble:
MGSDKIHHHHHHMKVLHLIDSGGLYGAERMLLALVAEQIQQGLEPMILSAGEQGIHQKPLEIEAEKLGLPLVVWRMTPGLNYPETRKICEWAEHWGVDLVHSHGYKFNILMSLFSRFSRKVPVVSTLHGYVHAPRFSRMWVYELLDRLAISRLDGVIMVGAAMKKELSTGLIRPRRLTTIRNGLAVDDTQRKATEPLPEALEEFFSTHEPVILGVGRLSKEKGFSHLVDSFREIKQSAPKAGLLIVGDGMLRKDLEDQVARLGLGSDVCLPGYCDNVPALMARSSALVISSSTEGLPITLLEAMAVRLPVVSTDVGEISFVLDEGDSGVLVKDPASELVDAIELVLNETEATHRKTEQAFHKVSGELSARSMAEQYLRVYNGVVAS
MGSDKIHHHHHHMKVLIITNLFPLNNNSNSGIFVVQRLRHYKSFNVNLDTISLGHHNSKIASLLEKLLRGHSNKKTLEEVENVKFYPVSIEINLLRLIKYGLLRNYFTVLCKEYKKMIEEAFNLNEYDLIHAHGMYSVPAGLTAKILAEKYRKPFIVTLHGSDVNLFMPHRKEIYVSILESASATIFVSKALLEKAKSLGFSGKNAVVIPNGYDETIFKPMDKEAVRKELGIHREGYKYVGFVGNLIPIKRADKLGEIFHLIAKEIPETFFIIVGDGPLRKKIEKETKGLNIIFTGRLPQKDVAKYMNAMDVMVLPSRNEGWPCVILEAQACGTCVIGSSNRGIPEAIGFPEYVVEEGDQFEERFARRVVEVLNEGYDVNRILERAKGFTWRNIVEKEIDVHKRVVLKS
MGSDKIHHHHHHMKVLQFNQDATCCVVAASSHQISIFNCDPFGKCFEIDTKNSKKKTSNNNGSASNSESRNNEESILITNGSRDRTDAEEEEDNEDNALVTGNILKEGEFVIEMLFSTSLIAIADRGQGLNKGKKLKIVNTKRKCTICEIVFPHEIVDVVMNRKRMCVLLESDQIFIYDISCMKPLETIDLWEDHYKRSQANSFSNASNTGTLEGDSANLNRVATNLLANATQKSVNGSNPSVRTRRNSLRSKIRPRMVLSNDDRSILCFTAYSSPKKNKPNSEALYDVVIYDTLNVTPVNYLNSVHKGNVACLAVSHDGKLLATASDKGTIIRVFHTGVDSDYMSSRSLFKEFRRGTRLCNLYQLAFDKSMTMIGCVGDTDTIHLFKLDDASNSLPGDNSSNGHWNEEEYILASNSNPSMGTPKEIPLSKPRIANYFSKKIKSSIPNQNLSRNFAYITVNESNRSCLGFPDEFPNQVYIASDDGTFSIYSIPSKPGECVLTKNNKFT
MGSDKIHHHHHHMKVNILMSTYNGQEFIAQQIQSIQKQTFENWNLLIRDDGSSDETPKIIADFAKSDARIRFINADKRENFGVIKNFYTLLKYEKADYYFFSDQDDVWQPQKLELTLASVEKENNQIPLMVYTDLTVVDRDLQVLHDSMIKTQSHHANTSLLEELTENTVTGGTMMVNHCLAKQWKQCYDDLIMHDWYLALLAASLGKLIYLDETTELYRQHESNVLGARTWSKRLKNWLRPHRLVKKYWWLVTSSQQQASHLLELDLSAANKAIIQAYVTLLDQSFLNRIKWLKQYGFAKNRAFHTFVFKTLIITKFGYRRK
MGSDKIHHHHHHMKVSADIGALVERRKQGYSLEAPFYQSEEIFALDMEAIFRKHWIQVAVEPDVPEPGDYITVELGHDSILVVRDDDMQVRAFHNVCRHRGARLCNEDKGTVGNIVCPYHSWTYNLTGDLMFAEHMGEKFDRCKHSLKSVHVQNLAGLIFVCLADEPPADFAAMRAAMEPYLLPHDLPNTKIAAQVDIIEEGNWKLTMENNRECYHCVANHPELTISLYEYGFGYQQSPANAEGMEAFEKTCIARAAQWEALNLPSAEIERLLERTGFRTQRLPLDRSGESQTLDAKVASKKLLGKFEQADLGGLSFWTQPNSWHHFMSDHIVTFSVIPLSAGKTLVRTKWLVHKDAQEGVDYDVANLTAVWNATNDQDRVLVEYSQRGSASSAYEPGPYSPFTEGLVEKFSAWYIRRLAEHVGA
MGSDKIHHHHHHMKWYADYLSIYDKPFTQAPQAVINQVKDKVRQLATHAPLVSVVAIAHNEEKRILSCLWSLCENQHNYPVEILVINNHSTDHTEEVLKELGVTYFNEYRKGPGFARQCGLNHARGKYHLCIDADTLYPPQYISTMIKVLQDKEVAGAYALWSFLPNEHHLGLFFYETLRDLYLKIQNLNRPELNVRGMAFAFHTETARKEGFRTDILRGEDGSLALALKKYGKLRFVTARKARVLTGYGTISADGSLFSSFKKRAIKGLRSFTALFYSKNNYEDEDSNLIK
MGSDKIHHHHHHMKYLLLIPDGMADWEVEELDGRTPLEVAETENMDFLAKEGACGIAKTVPDGFEPGSDVANLTILGVDVRKHYTGRGPIEALARGVKGKLVFRCNLVKVEDGVMVDYSGGRISDEEARKVIEELNRAKPYDFVKFYAGKSYRNLLVINKDFRDDVKTFPPHDITGKEIDKHLPSGGELAELLKELMGWSAEILPEITDKANMIWPWGGGRMPSFPNFGQRYGLRGAMITEVDLLEGIARGMGMEVVQVEGITGYIDTNYRGLVRETARALEEHDFVVLHTEGIDEVGHEGDAELKVRAIELYDSKIVGKLLNKVDLDETRILLLPDHPTPVKVKTHVAEPVPFTLYGRGRDEVKVYTEKSCRRGKFGLVDGLRLMDLLIKK
MGSDKIHHHHHHMLAICQLVKMKRICFYLKMQKGYMALNKKLKGDGEVLKDSFLAGAGKAKIVFSQDDFPIKQFTGIHDNLYIRVLLIDSNQRFAFVSIDLTSLTKDRIDFYKSLIHQLTSIDEGNIWVSVTHTFSAPHIPLESQKDDEEKIISMMLFKTSAALREAINQALLSMKPADIGFSYSSCPLNINRNIPTRLGWWLGRNDDGYSNHDVRTVTLKQENNEIISILYNFDVQASVMDNVSTKSGELLISSDLVGKASSDIENTFGKNSVAIFLPGSAGDQAPIFKGSNWKIMKNNRLVCSSIHEEAYSLVDQLGVKLSQSVQRAVFKTEKFADNCEIKINHYSVYLPEQRVKYSTKALRPSKKYQFEKPVIHFLSLLIFCT
MGSDKIHHHHHHMLCAISGKVPRRPVLSPKSRTIFEKSLLEQYVKDTGNDPITNEPLSIEEIVEIVPSAQQASLTESTNSATLKANYSIPNLLTSLQNEWDAIMLENFKLRSTLDSLTKKLSTVMYERDAAKLVAAQLLMEKNEDSKDLPKSSQQAVAITREEFLQGLLQSSRDFVARGKLKAPKWPILKNLELLQAQNYSRNIKTFPYKELNKSMYYDKWVCMCRCEDGALHFTQLKDSKTITTITTPNPRTGGEHPAIISRGPCNRLLLLYPGNQITILDSKTNKVLREIEVDSANEIIYMYGHNEVNTEYFIWADNRGTIGFQSYEDDSQYIVHSAKSDVEYSSGVLHKDSLLLALYSPDGILDVYNLSSPDQASSRFPVDEEAKIKEVKFADNGYWMVVECDQTVVCFDLRKDVGTLAYPTYTIPEFKTGTVTYDIDDSGKNMIAYSNESNSLTIYKFDKKTKNWTKDEESALCLQSDTADFTDMDVVCGDGGIAAILKTNDSFNIVALTP
MGSDKIHHHHHHMLDKRAQILLKTLIEHYISDGQPVGSRKLSVASGLDLSPASIRNIMSELEDHGFIASPHTSAGRIPTQRGYRLFVDTLLTVQPLQNQEIRKLENVLSSPDPQELINKAAELLSSLTHFAGLVMIPKRQGAAFRHLEFLPLSEKRILVIIVTTDGAVQNRIILAEKPYSASDLTQASNFFNQHYAGNTLDEVKQKLHEELKQMQSDMTRLMAAALEASSKTADNKDGVVIAGKRNLLDVQDLSTNVSSLRKLFEMFEHRTSLMQLLDQSQKASGVQIFIGGESGYLPLDECSMVTAPYETNGQTIGTLGVIGPTRMAYERVIPIVDITAKLLSNALSNNH
MGSDKIHHHHHHMLDQQHIQYFKNLVGGEDFFTDLAHLNAYCYDATKERHLPSGVIFPKNEQEISQILKYCNEHRIIVVPRGAGSGFTGGALSVSGGLVLSVEKHLDKILEIDTKNLIARVEPGVINKHFQNEVEKLNLFYPPDPASENQSTLGGNVAENAGGMRAAKYGITKDYVMALRVVLANGEIIRAGKKTIKDVAGFNVAGLMIASEGCLGVISEITLKLLAKPPLKQSAMGVFNHIEDAMNAVYKTMSSGVTPVAMEFLDNLSIKAVEERFSKGLPKDAGAILITQVDGVVKEQIAWQLNEIEKHFKANCCVDFKIAQNEQEEQDLWFSRRNASQSISVYGKKKLNEDVTVPRASLPSLLQEVAKISQKYGFKIPCFGHTGDGNVHVNIMLEDPKRDLEKGHEAMEEIFQAAISLEGTLSGEHGIGLSKAKFMPLAFNHSEMELFRNIKKALDPNNILNPFKMGL
MGSDKIHHHHHHMLDSYIKRIVIHQFSPNDTELLLSDRLVSITPRIDEYFRKKLAKVFSDEAKRGQFEANNTFFTTIGDDLLETSVTIAQLWKEAFVISEDQKTNDLVFVQFDKDGEPFFAFLRIALKEQFAHLSDNYEHPFTVTQNNLPSPTQTPDEALVINLKSGQYYLIEKRVKHNGSFANYFSEHLLKVTPEQSVKKSIKMIEQTAQKIAEHFNQDDFTFQSKMKSTLFKQLEADDVLSPEKLADQLFDDNLTARLTFVDQVKDVIPEPIKISDIEHSRQIKKLENQKLSLSNGIELTVPNAIYQDAEAVEFLLNDDGTYSILIKNIEDIKTK
MGSDKIHHHHHHMLENTGLVLEGGGMRGVYTGGILEYFMEQDLYFPYVIGVSAGACHAASYLSRQRNRNKTVNIDYASHPKYLSYKNLWRKRQLFDMDFIFHEIPEKHVPFDFETYFNSPERFLVGTTDCETGQSVYFEKEGTNDDALNLLQASSSLPFIAPVVNYRGKQLLDGGISDPIPVRKAQEDGFKKSVVILTRNHGYAKKKSRFGWIAAKAYKKYPNLVNTMLNRYEVYNETLHYIEKEEQAGNLFVIRPEVPLQVDRMEKDTAKLQNLYEQGYEDAKRQFADLKAFLQK
MGSDKIHHHHHHMLFFSFILLPELDVTMEDSGRRIKNEYRAWKERKMTKLTVGLALGSGAAKGWAHIGVLNGLAKLDIYPDKVAGCSVGALVGAAYANNHLGELETWVSGFSSWDVLGLMDLGWRKGGLISGEKVFDVLANRIGDIDIEQLNRPFAAVATDLYSGQEIWFKEGDLRHAVRASCSMPGFLPPVQQGHRWVVDGAVVNPVPVSLARSMGVDVVIAVDLNGHRRGQMHLIPEQVKSRKASKSEPIDEKRELESGFMDLWGKGKDYMNGLTDKFSLGSSKSHPGMLAVMSQSMDILEQRHKRSRLMGEPPDICIVPDVGDIGTMEFHRAKEAIKAGEQAVNDIKHLIEATLK
MGSDKIHHHHHHMLFLQNTPLPEIIDGLPNISGWEAEVLSVVNNDAPVFLPTTNIKLEDVNAVFAIALHMHQPTIPAGDGGELISNLQYMFAHPHEGDNHNAGPFAYCYSRMGEFIPELVSQGCNPRVMLDYSGNLLWGLRQMGRNDVLDSLKGVTGDRTYQPHVEWLGTMWGHAVVPSTPIKDIKLHILAWQQHFAAIFGWEALARVKGFSPPEMHLPNHPDTLFQFVKALKECGYRWLLVQEHTVETIDGQSLTNRHLPHRLLARNSQGETISIIALIKTQGSDTKLVAQMQPYYEAKTLSKRRLGNVEIPPIVSQIGDGENGGVMMNEFPSAFKQAWWDMVNHGGGKSGVVGVCGTEYLELIEAAGVKPEDFPSCQPVGQHQIWQRVAPDNNQPEAVENAIQEIKQINPNFHLEGASWTNHISWVRGYENVLSPMYELSSLFHQKFDNLLLNNSYSSITKQPDYRQALLYNLLLQTSCFRYWGQGAWTDYAREIYQRGKSLLTS
MGSDKIHHHHHHMLFWSTVDLGLTFMATSSTLAFDSSNRIDDVKIVIKGYEFGPAVPKLVVKLNQKISKVSTKDLKVETAGVKRQIKKVYLSDKNSQKSTKKEGDYLTIQMPVTYNVDDSSKNASPFVYNTDVFQNQWVKTYPVSIKGLTVSYKGKSTNNLTSKSDAINKRVSPDSEVFTNRGSFSGNYTNPLTKKNEKVDLQYAAYEPKKLQSGNKNPLIIWLHGQGEGGTDPDITLLGNKVTALIKEDIQNHFKSGNQKGTYVLTVQAPTYWMDEGDGSNGQGAGTSRYTEVLMDAIKKYVAKIT
